According to the supplement of paper PMC9170038:

System: MS2 coat protein
Assay: apparent KD of MS2 coat protein; designed switch direction (-1 OFF switch, 1 ON switch): -1; higher = weaker reporter binding
In short: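 Three titration conditions were used: no input, 200 uM small-molecule ligand, and an oligonucleotide input. In each, SNAP-549-labelled MS2 coat protein was raised from 0.7 or 1.5 nM, doubling, to 3 µM over designed RNA switches transcribed on Illumina chips by stalled E. coli RNA polymerase. Curve fits of normalised cluster fluorescence gave values whose per-design median over clusters is the apparent KD.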

[1] = Eterna round: R95, input ligand: FMN 200 uM
[2] = Eterna round: R95, input ligand: microRNA oligo, concentration not stated
[3] = Eterna round: R95, input ligand: none
[4] = input ligand: microRNA oligo, concentration not stated

Sequence	apparent KD of MS2 coat protein [2]	apparent KD of MS2 coat protein (input ligand: FMN 200 uM)	apparent KD of MS2 coat protein (input ligand: none)	further results
AAUAACAAGCAGGUCCUAAACAUGAGGAUCACCCAUGUGCUCGUCUUGUAAAGUACUAUCACGAAAGUGAUAGUACA [Sensor 3, v1 - 60] (puzzle: Sensor v3, turn-off variant 1)	297 nM			apparent KD of MS2 coat protein [1]: 26.8 nM; apparent KD of MS2 coat protein [3]: 28.3 nM
AAUAACAAGCCGAUCCUCCACAUGAGGAUCACCCAUGUGCUCGUCUUGUAAAGUACUAUCACGAAAGUGAUAGUACA (Eterna round: R97, puzzle: Sensor, turn-off variant 1)		39.2 nM	44 nM	
AAUAACAAGCUGAUCCUGCACAUGAGGAUCACCCAUGUGCUCGUCUUGUAAAGUACUAUCACGAAAGUGAUAGUACA (Eterna round: R97, puzzle: Sensor, turn-off variant 1)		16.3 nM	21.2 nM	
AAUAACAGAGGAUAUACUAUUUUAUGUGUUUAUUGUUUUGAACAUGAGGAUCACCCAUGUAGAAGGCUGAGUAA [JMF 38] (puzzle: Exclusion 2)	27.5 nM			
AAUAACAGAGGAUAUACUAUUUUAUGUGUUUGUUAUUUUGAACAUGAGGAUCACCCAUGUAGAAGGCUGAAUAA [JMF 22] (puzzle: Exclusion 2)	21.7 nM			
AAUAACAGAGGAUAUACUAUUUUAUGUGUUUGUUGUUUUGAACAUGAGGAUCACCCAUGUAGAAGGCUGAAUGA [JMF 69] (puzzle: Exclusion 2)	25.3 nM			
AAUAACAGAGGAUAUACUAUUUUAUGUGUUUGUUGUUUUGAACAUGAGGAUCACCCAUGUAGAAGGCUGAUUAA [JMF 52] (puzzle: Exclusion 2)	34.3 nM			
AAUAACAGAGGAUAUACUAUUUUAUGUGUUUGUUGUUUUGAACAUGAGGAUCACCCAUGUAGAAGGCUGAUUGA [JMF 80] (puzzle: Exclusion 2)	39.6 nM			
AAUAACUCAGUGAGGAUAUUUGCGGGUGUUUUCGCAAAGAAGGCACAUGAGGAUCACCCAUGUCAGAGGAGCUA [Eternabot (Original) Solution 24] (Eterna round: R97, puzzle: Brourd's mod of Exclusion 4)		214 nM	120 nM	
AAUAAGCGAGGAUAUGCGGGCGGGUGCGGCCAGCCGAUGUGACAUGAGGAUCACCCAUGUAGAAGGCGCAAUAA [Excls2-VI] (puzzle: Exclusion 2)	11.4 nM			apparent KD of MS2 coat protein [1]: 15.9 nM; apparent KD of MS2 coat protein [3]: 10.7 nM
AAUAAGCUAGGAUAUACAUGAGGAUCACCCAUGUGAGGGCACCGCCGGCGCGGGCCCGGUAGAAGGAGCAAUAA [Exc;s3-IV] (puzzle: Exclusion 3)	16.1 nM			
AAUAAGUGAGGAUAUACUAAAAUAUGAAUAAAAUAAAUAAAACAUGAGGAUCACCCAUGUAGAAGGCACAAUAA [JMF's Not so obvious solution 5] (puzzle: Exclusion 2)	23.9 nM			apparent KD of MS2 coat protein [1]: 22.6 nM; apparent KD of MS2 coat protein [3]: 22.2 nM
AAUAAUAAGGAGGAUAUCGUAACCGAAAGGUUACGAGAAGGCCUAACAUGAGGAUCACCCAUGUUCCUCAAUAA [Mat - Exclusion 6 - Eli Mod - D56] (puzzle: Exclusion 6)	186 nM			apparent KD of MS2 coat protein [1]: 468 nM; apparent KD of MS2 coat protein [3]: 389 nM
AAUAAUAAGGAGGAUAUCGUAUCGGAAACGAUACGAGAAGGUCUAACAUGAGGAUCACCCAUGUUCCUCAAUAA [Fiskers Ex 6 - 1] (puzzle: Exclusion 6)	33.6 nM			
AAUAAUGCAGGAUAUACAUGAGGAUCACCCAUGUGAAUAAAAUAAAUAAAAUGAUAAAGUAGAAGGGCAAAUAA [JMF's solution 1] (puzzle: Exclusion 3)	28.8 nM			apparent KD of MS2 coat protein [1]: 28 nM; apparent KD of MS2 coat protein [3]: 35.5 nM
AAUAGGACAGGAUAUCCGGAGUCGAACAUGAGGAUCACCCAUGUGAUGAGGAUGUUCGCUGGAGAAGGGUCUGGCU [Atisdiis] (puzzle: Exclusion 5)	124 nM			apparent KD of MS2 coat protein [1]: 83.9 nM; apparent KD of MS2 coat protein [3]: 176 nM
AAUCCUGAAGUUAGGAUAUGAAGUAUCACUACACUUUAGAAGGAACUUGAGGAUCACCCAAGUAGCCGUGAGGC [jl-bmx4.4.65 ViennaUCT mod] (Eterna round: R97, puzzle: Brourd's mod of Exclusion 4)		68 nM	22.4 nM	
AAUGAUUCAGGAUAUACAUGAGGAUCACCCAUGUUGGUGUCCCUCCCAAAGUUGCAGUGUAGAAGGGAGUCCCG [Tigezaonbi] (puzzle: Exclusion 3)	132 nM			

Sequence	apparent KD of MS2 coat protein [2]	apparent KD of MS2 coat protein (input ligand: FMN 200 uM)	apparent KD of MS2 coat protein (input ligand: none)	further results
AAUUAAACAAGCAGAUCCCACAUGAGGAUCACCCAUGUGCUCGUCUUAUAAGGUACUGUGACGAGAGUCACGGUACC [Mat - Sensor, turn-off var - Eli Mod - D64] (Eterna round: R97, puzzle: Sensor, turn-off variant 1)		66.4 nM	47.4 nM	
AAUUAAUAUCAGGAUAUGACGUGCCUCGGCACGUCAGAAGGGAUGACAUGAGGAUCACCCAUGUGAUCAAUUAA [E6/1-A2] (Eterna round: R97, puzzle: Exclusion 6)		153 nM	28.7 nM	
AAUUAAUAUCAGGAUAUGACGUGCUGCGGCACGUCAGAAGGGAUGACAUGAGGAUCACCCAUGUGAUCAAUUAA [E6/1-A3] (Eterna round: R97, puzzle: Exclusion 6)		114 nM	22.1 nM	
AAUUAGUAUGUGAGGAUAUUGAUGUAAUGACGGUUUAAGAAGGCACAUGAGGAUCACCCAUGUAAAUGAUCACG [JR_BMEx4_Sub008] (Eterna round: R97, puzzle: Brourd's mod of Exclusion 4)		74.4 nM	37.7 nM	
AAUUAUUAUUGAGGAUAUCGUAUUGAAACAAUAUGAGAAGGCGGGAUAAACAUGAGGAUCACCCAUGUGAGCCUGAUGCUUGUG [Ex NG1 #40] (Eterna round: R96, puzzle: Exclusion NG 1)				apparent KD of MS2 coat protein [4]: 15.3 nM
AAUUUACAUGAGGAUCACCCAUGUGAGGAUAUAUGCAAAGAAGUGUUAGUAAGAAAGCAUAGAAGGCGCGUGAU [JR_Exc1_Sub041] (Eterna round: R97, puzzle: Exclusion 1)		64.6 nM	47.8 nM	
AAUUUCGCGGCCCGAUGACUGCGUACUGACAGUGAGCUCACAUGAGGAUCACCCAUGUUUUUUGCUCGUAAAUCAGA [Quarat] (Eterna round: R96, puzzle: Sensor v2, turn-off variant 2)		13.6 nM	16.1 nM	apparent KD of MS2 coat protein [4]: 12.3 nM
AAUUUUUAUGUAAGGAUAUAAGUUUGGAAACGGGCUUAGAAGGUACAUGAGGAUCACCCAUGUAUAAUGUGCGU [-20.6, -20.4 kcal, 32% A] (Eterna round: R97, puzzle: Brourd's mod of Exclusion 4)		52 nM	23.2 nM	
ACAAGCUCUUUGCAACUUAGUUUUGUUGCUUCGUAGGUAACAUGAGGAUCACCCAUGUAAGACUGAUGUCGUCUUAU [JR_SV3TOV2_Sub086] (Eterna round: R96, puzzle: Sensor v3, turn-off variant 2)		36.8 nM	38.2 nM	apparent KD of MS2 coat protein [4]: 20.6 nM
ACAAGCUCUUUGCAACUUAGUUUUGUUGCUUCGUAGGUAACAUGAGGAUCACCCAUGUAAGACUGAUGUCGUCUUAU [JR_SV3TOV2_Sub086] (puzzle: Sensor v3, turn-off variant 2)	21.4 nM			apparent KD of MS2 coat protein [1]: 33.1 nM; apparent KD of MS2 coat protein [3]: 36.8 nM
ACAAGCUUAAUCUGUAUGAACAUGAGGAUCACCCAUGUAUAAGGGAAUUCUUUUGGGUUUUUUAUAGCUCGUCUUAU [JR_STOV1_Sub020] (Eterna round: R97, puzzle: Sensor, turn-off variant 1)		280 nM	337 nM	
ACAAGCUUAUUGCUCGGGUACAUGAGGAUCACCCAUGUUAGUGAUUAUAGAGAAUGUGUUGACGUGCGCUGCAGGUU [JR_SV3TOV1_Sub079] (puzzle: Sensor v3, turn-off variant 1)	46 nM			apparent KD of MS2 coat protein [1]: 75.5 nM; apparent KD of MS2 coat protein [3]: 92.2 nM
ACAAGCUUUACGAUCCUCAACAUGAGGAUCACCCAUGUGCUCGUAUUGUUUAGUACUAUCACGAAAGUGAUAGUACA [Sensor, turn off variant 1 v.6] (Eterna round: R97, puzzle: Sensor, turn-off variant 1)		1430 nM	943 nM	
ACAAGCUUUUAGAUUCUUAACAUGAGGAUCACCCAUGUGCUCGUCUUACCGGCCGGCGGGCCGCCGGCCGGGCUUGU (Eterna round: R97, puzzle: Sensor, turn-off variant 1)		18.5 nM	18.5 nM	
ACAAGCUUUUAGAUUUUCAACAUGAGGAUCACCCAUGUUCGUCUUAUGCUAGUGCGAGUGCGGUGUACUCGUAUUAG [JL TOV1 3.81 sellena mod] (Eterna round: R97, puzzle: Sensor, turn-off variant 1)		18.2 nM	16.8 nM	
ACAAGCUUUUUCAUAUCUAACAUGAGGAUCACCCAUGUUUAAGCAAUUAUGUUUGGGCUCUUUUGAGCUCGUCUUAU [JR_STOV1_Sub047] (Eterna round: R97, puzzle: Sensor, turn-off variant 1)		13.8 nM	12.3 nM	
ACAAGCUUUUUCGUGGGUGACAUGAGGAUCACCCAUGUUUGCCGCGUCUUGUCGUCGUGGACCUGUGGUCCAUGACG [Small mod of -44.6, -64.9 by Sellena] (Eterna round: R97, puzzle: Sensor, turn-off variant 1)		137 nM	153 nM	
